Experimental data taken from publication PMC11676905.

Assays:
[1] = molecular target: rTBL-1 R103Q mutant lectin (Phaseolus acutifolius); experiment: SEC; ENrich SEC 650 column calibrated with gel filtration standard; 200 µL of sample at 10 mg/mL; 20 mM MES, 100 mM NaCl, pH 6.5; single peak at approximately 120 kDa
[2] = molecular target: rTBL-1 R130Q mutant lectin (Phaseolus acutifolius); experiment: as above

| stoichiometry N [1] | stoichiometry N [2] | Substance |
| --- | --- | --- |
| 4 |  | rTBL-1 R103Q mutant lectin (natural protein) |
|  | 4 | rTBL-1 R130Q mutant lectin (natural protein) |
